# Test results from the DeepSol protein solubility set.
# Experiment: soluble on expression in E. coli; label from the status in PepcDB or PDB records
row,Sequence,soluble on expression in E. coli
1,MGSDKIHHHHHHMRIILYTGKGGVGKTSISAATALQSAKQGLKTLVMSTDPAHSLGDSFGIKLSSEPLEIRENLWAQEINTIYEMEKGWGKLQKYITLLFTSKAADDITTEELTMFPGMEDLISLLRVLDYYKQNTYDVIIIDCAPTGETLAMLSFPDMLGWWMEKLFPIKRKVLKVVRPVAQPLLGVPLPTDDIMDELTNTLEQLGEMRDILSNRDVTSIRIVVNPEKMVIKEAQRSFTYLNLYDYNVDAIMINRVIPNTVIDPYFQAWKDTQKKYKTLIQNSFDPLPIYEAPMFEQEVVGLPMLERVGDALFKEDYCPTEVKFNGRTQYVKKDGDEYIFVLSIPFSNKSELALNQKGDELIIRAGSVKRNITLPKTLTHLSIQGAKFEDDVLNIRFGGVVHA,not soluble
2,MLYREHHSWIYTWLYRRLGNSADAADLAQDTFIRVITRKSLLEIEQPRAYLTTVAKSLMLNWFNRRNIEQAYLEVLANQPEFEHPSPEQRYLIVETLIEVIQLLDTLPDQIRDVFLHAQLENMNYQQIADQFNLSLSTVKRHIKKAYIHCLTAMLDTDFSC,not soluble
3,MNGNGENGTDEKQKLLSVVGVVSEEVVEMNRVSSARFQVSKTDEDEKTSDDNLRKLKSGSEPPPPTQNHEAVTLVTRKMSATGRFMVTSDTNPGQLVAEVADELGIDVPIDPPAEKSPASRAKGVHFSVGDKDSGSMSEDGDEKRNITHENQTTFNMKSWRNMKTIEHPPIIDFYRNSIDTDGVFNRPSMAQLIHGKEHKEQDLGFEELNKKPETAQLAKVIGLNLLSKEDQERRDFERKKRINQQKLQEMHKMHKETYNFR,not soluble
4,MGSDKIHHHHHHMSSDSVIRVSNLGKRYEIYAQPKDRLKQMVMPRLKRMIGMHPPEYFREFWALRGVSFEVRRGETVAIIGQNGSGKSTLLQLVCGTLFPTNGDIQVKGRIAALLELGAGFNPEFTGEENIYLSGLLYGISEDELRNRFDSIVEFAEIGEFISQPVKTYSSGMYVRLAFAIAAHVDADMLVVDEALSVGDVRFTQKCMRFLREFQKTGTLLFVSHDVGAVTSLCSRAIWLNQGVLKMDGPAKETVEAYLAEQHALDRGQRGDVVQLAKAREKVAKQPAKAANPPVVDVVDQRWEALRANGSGTRIEVFEFMPDSSESEFGARGATIERVALRNEAGEDLPIVQGGELVDLYIESRSHQALAGLIFGFYLKDRLGQRLFGDNTFMTYADREVRSQAGDTHIARFRFRMPIMPVGAYSFDVAIATGNQHDHTQQHWIHDALSMRAVDSTMRHGLVGIPMLEIAISKEG,not soluble
5,MAHHHHHHMATIGMFNEEGENVDLYIPRKCHATTTLIEAHDHAAVQISIANVGPNGVINGTTTTLCIAGYLRSQGESDHAINHITIDRGIMRIKTGKPKRASKSKSKKPAAKGAAAGAAAQKGARPPAQKGARPPAQKGARPPAQKGARPPAQKGARPPAQKGAAPARKNRA,soluble
6,MVSRSFFLTHTFKDVSKLGEGGSYSSDIEVRHDIPWKIRIFKKEGFLGVNLHCEKEECFETKKWTFQTKFTMKLVAVSDFPVSQHDSDNSFVLKHNFKNISRLVEDERDYSDTEKHYNALWSFKIRKFNEHLGIWLICEKEIWEERRWSINLQYELKLISASGKVRSAQYTNVFGVGSLWGILKFISWNNLEKDYVTNDSIDVEVLVKIIEFTELPCTEKTFVLSHIVKNMSSIEDGWKTFSDTQTRFNIPWKLQIRRQDGFVELLLHCSKQLDESRSWSIKTEYQFKLVSTNGRSVAFYGEKVFEKPVGSGWDKLIRWENWASRCNDEFVFEASVRILNTTGIEDENDVDRFSGFAIPVEGQEYSMEKWLEMAFDH,not soluble
7,MMKQIPYGLTDFARIQKDNYYYVDKTMFIERIEMQPAYLFLIRPRRFGKSLTLAMLEAYYDVVYANDFDELFGHLYIGQHPTPKHNCYLIMRFNFSEVSSNVNEVERSFKLHCCSKLRDFVFKYEDLLGKEIWDVLDEEIQQDPGAFLSAINSYASRKGNLPIYLLIDEYDNFTNTILSTYGTEYYQKATHGEGFVRGFFNVIKAATTGTGSALQRMFITGVSPVTMDDVTSGFNIGTNITTDPWFNDLVGFSEAELREMLTYYKEQGVLMQTVDETIVMMKPNYDNYCFSRSRLADCMFNSDMVLYFMKSFVLHGEKPDEIVDPNIRTDFNKLAYLIRLDHGLGENFSVIKEIAEQGEITTDIATHFSALEMTDVRNFKSLLFYFGLLSIKGVDMVGRPILHVPNLVVREQLFSFLIQGYIKHDIFKIDMNRMTMLFENMAFRGDWKPLFNFIAEAIREQSRIREYIEGEAHIKGFLLAYLGMYRYYQLYPEYELNKGFADFLFKPSPSVPVMPPLTYLLEVKYAKAGASEKEIRALADGAREQLLRYSQDELVTEARAKGGLKLITIVWCSWELVLLEEVL,not soluble
8,MSLLFNTEDLKAIFQEVSLNPSDRLVCNNSNTIYLWQDNILRVQSDHETQYRSYNVELPFVPEQMVISPSGGLVAFHANSELYVMEVNEQSRLRKHFNTSLGIKKLLWHPLATYGLSFVILHDDSTIRIYDLEDLEPESITVFNRKSRSFGLSDHVESVCDIAFDPTGLTLYLLSSFNYCDIYAIHPCLPKNFSLRSNDTSNVTSRTKNGSLADYMLHKSLSLYNSLDKQLKLISGSDPDVESDYLTLKHDLLKQIQFFDNYKKNDGIDTFTSKAIRNSVPQGPFIIKKFPTALNAKEVTGLTIIPVGERLGLLNLQFIDGTNVVLFSDSEIVMSWSLRSNTTFNNLSVITMFNAKGQCQLLNSSEPKLVFTGDSSTTIMEMPWLEPLAQCIRLHDFSIIDDVKFENKIRTVSGTFLGVLSTLSGDILYNGNSFKVIESNDKSTTQKPINRTDEVKYTYKPSLPTSGKELDMLLTKYKTEANGFISGIPDSLAPLPLKNEGHHHHHH,soluble
9,MSLSVTDVAGRTVSFDAQPKRILLAEGRALMATSVLNKENPAKDVVAIGADLHKAAPSFESALRQARPQVSKLPMIGSIAKGDVTVENMLSFKPDAVVMTLDQKEAAEKAGFLQKMDQAKLPYVFIDFRRKPLENTTKSMATLGKIFGGKAISRAKEFNKFYQSKVDDVSRRVSRESDKPRTFLWRAAGLKDCCSTYANLNLGDVITAAGGHNLGADLLRTSAGDVTPEKIVATQPEHIIATGGSWAKDPKKPESVPHVELGYNVTDDDAQRTLAGLLKTPGFSLLKAPKDGKLHAVYHQFYDSPFNVFALEQFAAWQHPKQFKGVDLTKDFAKFHEDYLPFGYRGVFFVTLKEGHHHHHH,soluble
10,MQSIPIKNVGESRLVDPFQRQYYYLRLSITDQCNFRCTYCLPDGYQPEANKPSFLTLKEITHLAQAFAEMGTEKIRLTGGEPTLRKDFISIAESITNIDGIRQLAVTTNGYRMAKDVADWKKAGITSINVSVDSLDPKMFHQITGINKFDDVMRGIDRAFEVGYNKVKVNSVLMKNLNDKEFEQFLAWVKDRPIQMRFIELMQTGEMDSFFDKFHLSGQVLADKLLKNGWTLQHKSHTDGPAKVFTHPDYAGEIGLIMPYEKNFCASCNRLRVSAKGKLHLCLFGEEGIELRDLLQSHEQQGILQARIFAALQGKREHHYLHIGDTGVRNHLASIGGMGHHHHHHSH,not soluble
11,MGSDKIHHHHHHMWLSSEFNRMAEKTFKAYEPDDAFFSTLLYGPEGVGKSTLLVKCCQRLKEKKTILYIDAQDFVKNYAFAAQEGTLSQFRLRLRTPGVLIMDHIEVLKGKTRSIEEFYHTYEALFQRNGRIICGFRGDPSQLGFLGEKLSSRLRGGLVVPILQPTPEDMLNYLRQMAYGKFLIVEDLVLELMAEEAANFPEAQSLMNGFIQFANRTDSALDHDALLLYLQERRYQEGLRPSPQNIIQKVAELTGVAAAAIYSTTRTPEVRQARQLAIYGIRSLSRLSYPEIGASLNKSHSSIMKSYQQFQEAVQKNPELREMLESLVKYFNSPDDEKTER,not soluble
12,MKVRVKAPCTSANLGVGFDVFGLCLKEPYDVIEVEAIDDKEIIIEVDDKNIPTDPDKNVAGIVAKKMIDDFNIGKGVKITIKKGVKAGSGLGSSAASSAGTAYAINELFKLNLDKLKLVDYASYGELASSGAKHADNVAPAIFGGFTMVTNYEPLEVLHIPIDFKLDILIAIPNISINTKEAREILPKAVGLKDLVNNVGKACGMVYALYNKDKSLFGRYMMSDKVIEPVRGKLIPNYFKIKEEVKDKVYGITISGSGPSIIAFPKEEFIDEVENILRDYYENTIRTEVGKGVEVV,soluble
13,MSIDIKYLSRIDIDREEFFFKDSRLMCKKFDEEREVLTLLEFDTKFRVNLLKKDKVYKYFLVSDANHKLLIANLVTEQQAKDLSFIEKDIMKIASSATAYGASDIHFIREDRICKIKFRVNGTMIDYREILSSEADALMFVLYNVMATTKETTWNRKLPQDANIILVINEKAYRFRYAHMPLFGEGGKNYHAVVRIIYPSNNFVCTNYQDIGYNEADTDAIARILNTSYGLFIVSGTTGSGKSTSLKKYIELLFFNKYKGKGCFVTVEDPVEYLISGAQQSSIVADNDDKTKNPFADAVRSAMRRDPDVIMIGEIRDKPTVEALSSAVESGHYCLTTIHAGSVVSVLQRLSGLGMKADKIASPGFLAGITSQKLIPELCPSCKVSFVDERYQRAVFSANENGCEACNHSGFKGRLLLLETLVPTVEDLELVASENWVSLYRKYRERRFIKTGKKGLGEGFSIKDKAYYNVLKGKVCHEYFMLHFGQLDHEDENIIYENYLQEV,not soluble
14,MQIQKSFKGQSPYGKLYLVATPIGNLDDMTFRAIQTLKEVDWIAAEDTRNTGLLLKHFDISTKQISFHEHNAKEKIPDLIGFLKAGQSIAQVSDAGLPSISDPGHDLVKAAIEEEIAVVTVPGASAGISALIASGLAPQPHIFYGFLPRKSGQQKQFFGLKKDYPETQIFYESPHRVADTLENMLEVYGDRSVVLVRELTKIYEEYQRGTISELLESIAETPLKGECLLIVEGASQGVEEKDEEDLFVEIQTRIQQGVKKNQAIKEVAKIYQWNKSQLYAAYHDWEEKQ,not soluble
15,MCGRYALFSTPETLRETFGLTTAPVEPTYNAAPSQSLPVILDTEPTETVRARWGLVPSWSDGPQSAPDPINARAETLTETRHFQAAYEHRRCLVPVDGFYEWRDEDGATVPYFVSRTDGAPFLLAGLWETWTPEQTQTGLGEFTGDDGPSRDPETVRSFTVVTTQPNAFLADYHHRMAVVLTPAQGQRWLTDDDPTDLFTPGAFDLQAWRVSTAVNDPTVDRPALVEPALEHHHHHH,not soluble
16,MSLIYAQILAGGKGTRMGNVSMPKQFLPLNGKPIIVHTVEKFILNTRFDKILISSPKEWMNHAEDNIKKYISDDRIVVIEGGEDRNETIMNGIRFVEKTYGLTDDDIIVTHDAVRPFLTHRIIEENIDAALETGAVDTVIEALDTIVESSNHEVITDIPVRDHMYQGQTPQSFNMKKVFNHYQNLTPEKKQILTDACKICLLAGDDVKLVKGEIFNIKITTPYDLKVANAIIQERIANEGHHHHHH,soluble
17,MGSDKIHHHHHHMQIESFKSLLPKYKCIFFDAFGVLKTYNGLLPGIENTFDYLKAQGQDYYIVTNDASRSPEQLADSYHKLGLFSITADKIISSGMITKEYIDLKVDGGIVAYLGTANSANYLVSDGIKMLPVSAIDDSNIGEVNALVLLDDEGFNWFHDLNKTVNLLRKRTIPAIVANTDNTYPLTKTDVAIAIGGVATMIESILGRRFIRFGKPDSQMFMFAYDMLRQKMEISKREILMVGDTLHTDILGGNKFGLDTALVLTGNTRIDDAETKIKSTGIVPTHICESAVIEL,not soluble
18,MGSDKIHHHHHHMAILERKIIHEIDTSCSHIIYPQFVLPRHKHAEYEIMLFTQGSGKQFVGEGVADFQEGDIALIGSNVPHLHLCNSKLNPVANTVCSAGEALQFLPDIFPVHIENLPDYQEIYRLLRKSQYGVRFYDKGLYDEVKELFQEMDLLKHTNRLITILRILGRLTECRNIKLLSDVAYNGSNRLLEVNEPVNKVYTYLFNHFKEKVLLQEVADYVKQNPSALCRYFKQRTDKSIFQCLAEIRIEHACKLLSYSNLSVSQIAFESGFNSVPYFIKQFQSITEKTPGEYRELIGR,not soluble
19,MSVDETITFSLAVKNTGNREGQEIVQLYIRDIKSSLPRPVKELKRFKKVNLMPGEEKIVSLSIDKEALSFFDAERHEWICEPGKFEAIIAASAMDIKDVLKFELKLEHHHHHH,not soluble
